This passage reports % cells stained results from patent US20210032364A1.

Assay [1] deals with Na+/K+ ATPase α-1 on mouse Lewis Lung LL/2 cancer cells (mouse) (UniProt Q8VDN2). The assay can be described thus: flow cytometry, 5 µg/ml, EDTA-treated permeabilized mouse LL/2 cells.
Assay [2] has the same target. Kind of assay: flow cytometry, 5 µg/ml, EDTA-treated intact mouse LL/2 cells.
Assay [3] has the same target. The assay can be described thus: flow cytometry, 5 µg/ml, trypsin-treated intact mouse LL/2 cells.

“mAb to Na+/K+ ATPase α-1 (Abcam, Cat. No. ab2826) (antibody)”: the % cells stained in assay [1] is 63.8%; in assay [2], 29.9%; in assay [3], 20.5%.
